Laboratory results: patent publication US20040072207A1 (WHITEHEAD INSTITUTE FOR BIOMEDICAL RESEARCH, published 2004)
Residue numbers refer to the chain shown, from its start.

B1: HA-raptor mut1 (194YDC196-AAA) (other, not shown: small tags and cut ends)
chain: MESEMLQSPLLGLGEEDEADLTDWNLPLAFMKKRHCEKIEGSKSLAQSWRMKDRMKTVSVALVLCLNVGVDPPDVVKTTPCARLECWIDPLSMGPQKALETIGANLQKQYENWQPRARYKQSLDPTVDEVKKLCTSLRRNAKEERVLFHYNGHGVPRPTVNGEVWVFNKNYTQYIPLSIYDLQTWMGSPSIFVAAASNAGLIVKSFKQFALQREQELEVAAINPNHPLAQMPLPPSMKNCIQLAACEATELLPMIPDLPADLFTSCLTTPIKIALRWFCMQKCVSLVPGVTLDLIEKIPGRLNDRRTPLGELNWIFTAITDTIAWNVLPRDLFQKLFRQDLLVASLFRNFLLAERIMRSYNCTPVSSPRLPPTYMHAMWQAWDLAVDICLSQLPTIIEEGTAFRHSPFFAEQLTAFQVWLTMGVENRNPPEQLPIVLQVLLSQVHRLRALDLLGRFLDLGPWAVSLALSVGIFPYVLKLLQSSARELRPLLVFIWAKILAVDSSCQADLVKDNGHKYFLSVLADPYMPAEHRTMTAFILAVIVNSYHTGQEACLQGNLIAICLEQLNDPHPLLRQWVAICLGRIWQNFDSARWCGVRDSAHEKLYSLLSDPIPEVRCAAVFALGTFVGNSAERTDHSTTIDHNVAMMLAQLVSDGSPMVRKELVVALSHLVVQYESNFCTVALQFIEEEKNYALPSPATTEGGSLTPVRDSPCTPRLRSVSSYGNIRAVATARSLNKSLQNLSLTEESGGAVAFSPGNLSTSSSASSTLGSPENEEHILSFETIDKMRRASSYSSLNSLIGVSFNSVYTQIWRVLLHLAADPYPEVSDVAMKVLNSIAYKATVNARPQRVLDTSSLTQSAPASPTNKGVHIHQAGGSPPASSTSSSSLTNDVAKQPVSRDLPSGRPGTTGPAGAQYTPHSHQFPRTRKMFDKGPEQTADDADDAAGHKSFISATVQTGFCDWSARYFAQPVMKIPEEHDLESQIRKEREWRFLRNSRVRRQAQQVIQKGITRLDDQIFLNRNPGVPSVVKFHPFTPCIAVADKDSICFWDWEKGEKLDYFHNGNPRYTRVTAMEYLNGQDCSLLLTATDDGAIRVWKNFADLEKNPEMVTAWQGLSDMLPTTRGAGMVVDWEQETGLLMSSGDVRIVRIWDTDREMKVQDIPTGADSCVTSLSCDSHRSLIVAGLGDGSIRVYDRRMALSECRVMTYREHTAWVVKASLQKRPDGHIVSVSVNGDVRIFDPRMPESVNVLQIVKGLTALDIHPQADLIACGSVNQFTAIYNSSGELINNIKYYDGFMGQRVGAISCLAFHPHWPHLAVGSNDYYISVYSVEKRVR
notes: also called mutant 1
B2: HA-raptor mut2 (261DLF263-AAA) (other, not shown: small tags and cut ends)
chain: B1 chain with A194Y, A195D, A196C, D261A, L262A, F263A
B3: HA-raptor mut3 (313NWIF316-AAAA) (other, not shown: small tags and cut ends)
chain: B1 chain with A194Y, A195D, A196C, N313A, W314A, I315A, F316A
B4: HA-raptor mut 7 (738SLQN741-PAAA) (other, not shown: small tags and cut ends)
chain: B1 chain with A194Y, A195D, A196C, S738P, L739A, Q740A, N741A
notes: also called mutant 7
B5: HA-raptor mut 9 (1191RVYDRR1196-DAAADD) (other, not shown: small tags and cut ends)
chain: B1 chain with A194Y, A195D, A196C, R1191D, V1192A, Y1193A, D1194A, R1195D, R1196D

How the values were obtained:
[1] = biological target: T1, mTOR (mammalian target of rapamycin), endogenous protein of human cell lines (human, UniProt P42345 1-2549); assay: co-IP from transfected HEK293T cells, western blot (FIG. 6B, 8D)
[2] = biological target: T1, mTOR (mammalian target of rapamycin), …; assay: anti-HA immunoprecipitates from transfected HEK293T cells, mTOR western blot (FIG. 6B)
Experimental: 3 million HEK293T cells in 6-cm dishes were transfected with plasmid constructs and amounts indicated in the Figure legends using the Lipofectamine 2000 transfection reagent (Life Technology). 24 hours after DNA addition, cells were rinsed once with PBS and lysed in 300 μl of ice-cold Buffer B. Immune complexes were prepared from cleared supernatants using 3 μg polyclonal anti-myc or monoclonal anti-HA antibodies and 20 μl of a 50% slurry protein G-Sepharose. After a 3 hour incubation, immuneprecipitates were washed six times with Buffer B and twice with Wash Buffer 2. Bound proteins were eluted in 1× sample buffer, and mTOR or HA- or myc-tagged proteins were detected by immunoblotting as described (Burnett et al., PNAS 95:1432-143 (1998)).

Row | Binder | binding result [1] | binding result [2]
1 | B1 | no binding | –
2 | B2 | – | no binding
3 | B3 | – | no binding
4 | B4 | – | binds
5 | B5 | – | no binding
